Experimental data from US20130059772A1, “Use of Repeat Sequence Protein Polymers in Personal Care Compositions” (DANISCO US INC., priority 2003, published 2013).

Experiments:
[1] = tested on: cultured dermal fibroblasts; assay: UVB protection, follow-up MTT assay (pretreatment protocols); assay type: cell-based, human; settings: UVB control 79 ± 19
Experimental: (§1) Two sets of duplicate cells were prepared using the four treatment protocols outlined in Table 24. One set of cells was used for an MTT assay while the other set of cells was used to measure the formation of ROS using the fluorescent DCF dye indicator.
(§2) For this follow up study, the material was tested at concentrations of 0.14% and 0.014%. During the pretreatment phase, the test material was diluted in FGM (for treatments 1 and 2). […] For the MTT assay, cells that were not exposed to UVB or treated with test materials were used to represent 100% cell viability.

[2] = tested on: reactive oxygen species (ROS); assay: Fluorescent DCF dye assay after UVB; assay type: cell-based, human; settings: No UVB 0.031, UVB 0.057
Experimental: Therefore, the aim of the follow-up study, was to determine if treatment with the test material before or during UVB exposure provided any additional survival benefit(s). Four different treatment regiments were employed using different combinations of pretreatment with the test material prior to UVB exposure and treatment with the material during UVB exposure. Cell survival was again assessed via an MTT assay 48 hours after the UVB insult. In addition, this second study also incorporated the use of 2′,7′-dichloro-dihydrofluorescein diacetate (DCF), which is a relatively non-fluorescent dye that can be loaded into cells and becomes fluorescent upon exposure to the reactive oxygen species (ROS) generated during UVB exposure (Carini et al., Il Farmaco 55:526-534 [2000]; and Chan et al., J. Cell. Biochem., 90:327-338 [2003]). The diacetate form of the dye can freely traverse cell membranes, however once inside of the cell intracellular esterases will cleave off the acetate side groups trapping the DCF dye within the cell.
as §1, §2
One hour prior to UVB exposure, the cell culture media were removed and the wells were washed with PBS to remove any residual RSPP test material in the set of cells used for the DCF assay. A 20 mM stock of DCF prepared in DMSO was diluted to 10 μM using PBS and 100 μl of this solution were added to each well. The plate was then returned to the incubator for 1 hour, to allow sufficient time for the cells to take up and trap the dye. After the 1-hour incubation, the cells were washed with PBS to remove any unincorporated dye and then exposed to UVB using the protocol described above. Forty-eight hours later, the 96-well plate was read using a fluorometer set for an excitation wavelength of 485 nm and an emission wavelength of 518 nm. The duplicate set of wells run for the MTT assay served as non-dye loaded blanks to account for any background fluorescence due to the cells or the test material.
The mean fluorescence intensity was determined for each of the treatment groups (measured in relative fluorescence units or “RFU”).

[3] = tested on: Fibroblasts (HDFn Cell Line); assay: MTT assay (second cell viability assay); settings: 48 hours
Excerpt: The purple crystals are extracted from the cells with isopropanol and the amount of crystal formation quantified spectrophotometrically. The intensity of the purple color is directly proportional to the metabolic activity of the cultured cells, which normally is used as an indication of an increase in the number of viable cells, although it can also indicate an increase in the mitochondrial content of the existing cells (Alley et al., Cancer Res., 48:589-601 1988). A decrease in color intensity can be a sign of toxicity.
Fibroblasts (Cascade Biologics, HDFn Cell Line, lot#1C0914) were seeded into the individual wells of either a 96-well plate (for the initial pilot work to determine concentration effects on cell viability) in 100 μl of Fibroblast Growth Media (FGM) or in 12-well plates (for the measurement of collagen, elastin and MMP-1) in 1.0 ml of FGM and incubated overnight at 37±2° C. and 5±1% CO2. On the following day, the medium was removed via aspiration to eliminate any non-adherent cells and replaced with fresh FGM. The cells were grown until confluent, with a media change every 48 to 72 hours. Upon reaching confluency, the cells were treated for 24 hours with Dulbecco's Modified Essential Media (DMEM) supplemented with 1.5% FBS to wash out any effects from the growth factors included in the normal FGM. After this 24-hour wash out period, the cells were treated with the test materials at the specified concentrations dissolved in DMEM with 1.5% FBS. […]
After the 2-day incubation, the cell culture medium was removed and the fibroblasts were washed twice with PBS to remove any remaining test material. […] The 96-well plates were read at 540 nm using isopropyl alcohol as a blank. The mean MTT absorbance value for the negative control cells was calculated and used to represent 100% value for cell viability. The individual MTT values from the cells undergoing the various treatments were then divided by the mean value for the negative control cells and expressed as a percent, to determine the change in cell viability caused by each treatment.

[4] = tested on: cultured dermal fibroblasts; assay: UVB protection, initial MTT assay (material applied after UVB); settings: 0.14%, −UVB condition
Experimental: In these experiments, the test material was tested at six concentrations with two duplicate sets of cells prepared. […] Changes in cell viability were then determined 48 hours post material application via an MTT assay, as described above.
Fibroblasts were seeded into the individual wells of a 96 well plate in 100 μl FGM, and incubated overnight at 37±2° C. and 5±1% CO2. On the following day, the media were removed via aspiration to eliminate any non-adherent cells and replaced with 100 μl of fresh FGM. The cells were grown until confluent, with a media change every 48 to 72 hours.
An UVLM-26 lamp was used as the source of UVB light. UV light intensity was measured using a UVX radiometer coupled to a UVB sensor probe (UV Products) to determine the time required to deliver an approximate dose of 50 mj/cm^2. Prior to UVB exposure, the FGM was replaced with 100 μl PBS. After exposure, the PBS was removed and replaced with FGM supplemented with either the test materials, 20 μM Trolox, or left unsupplemented. A duplicate set of cells was also prepared and treated as described above, with the exception that they were not exposed to UVB light. […] The cells were allowed to incubate with the test materials for 48 hours, and then changes in cell viability were determined via an MTT assay. […]
After the 48-hour incubation, the cell culture medium was removed and the fibroblasts were washed with PBS to remove any remaining test material. […] The 96-well plate was then read at 540 nm using isopropyl alcohol as a blank.
The mean MTT absorbance value for the negative control cells (non-UVB exposed and non test material treated cells) was calculated and used to represent 100% value for cell number. The individual MTT values from the cells undergoing the various treatments was then divided by the mean value for the negative control cells and expressed as a percent, to determine the change in cell viability caused by each treatment. MTT scores for each treatment are expressed as means±the standard deviation of the mean.

[5] = tested on: Fibroblasts (HDFn Cell Line)
Experimental: Initial screening was conducted to identify a test range suitable to determine the effect of a broad range of test material concentrations on cell viability. […] Cultured fibroblasts were exposed to the test materials for 48 hours and then changes in cell viability were determined using an MTT assay (i.e., a colorimetric analysis of the metabolic activity of the cultured cells, described in greater detail below).
The purple crystals are extracted from the cells with isopropanol and the amount of crystal formation quantified spectrophotometrically. […] A decrease in color intensity can be a sign of toxicity.
Fibroblasts (Cascade Biologics, HDFn Cell Line, lot#1C0914) were seeded into the individual wells of either a 96-well plate (for the initial pilot work to determine concentration effects on cell viability) in 100 μl of Fibroblast Growth Media (FGM) or in 12-well plates (for the measurement of collagen, elastin and MMP-1) in 1.0 ml of FGM and incubated overnight at 37±2° C. and 5±1% CO2. On the following day, the medium was removed via aspiration to eliminate any non-adherent cells and replaced with fresh FGM. The cells were grown until confluent, with a media change every 48 to 72 hours. Upon reaching confluency, the cells were treated for 24 hours with Dulbecco's Modified Essential Media (DMEM) supplemented with 1.5% FBS to wash out any effects from the growth factors included in the normal FGM. After this 24-hour wash out period, the cells were treated with the test materials at the specified concentrations dissolved in DMEM with 1.5% FBS. Untreated cells (negative controls) received DMEM with 1.5% FBS. The cells were incubated for 48 hours and at the end of the incubation period cell culture medium was either discarded (pilot work) or collected and stored frozen at −75° C. The test materials were tested in triplicate.
After the 2-day incubation, the cell culture medium was removed and the fibroblasts were washed twice with PBS to remove any remaining test material. After the final wash, either 100 μl (96-well plates) or 300 μl (12-well plates) of DMEM supplemented with 0.5 mg/ml MTT were added to each well and the cells were incubated for 1 hour at 37±2° C. and 5±1% CO2. After the incubation, the DMEM/MTT solution was removed and the cells were washed again once with PBS and then either 100 μl (96-well plates) or 1 ml (12-well plates) of isopropyl alcohol were added to each well to extract the purple formazin crystals. For the 12-well plates, two hundred microliters of the isopropyl extracts was transferred to a 96-well plate. The 96-well plates were read at 540 nm using isopropyl alcohol as a blank. The mean MTT absorbance value for the negative control cells was calculated and used to represent 100% value for cell viability. The individual MTT values from the cells undergoing the various treatments were then divided by the mean value for the negative control cells and expressed as a percent, to determine the change in cell viability caused by each treatment.

[6] = Isoelectric point determination (IEF gel); assay type: physicochemical; settings: stated in production example
Experimental: In this Example, experiments performed to determine the isoelectric point and cloud point of SELP47K (Example 1) are described. The isoelectric point of SELP47K was determined by electrophoresing 5 mg/ml SELP47K solution using Isoelectric Focusing Electrophoresis (IEF) gel and Novex electrophoresis apparatus along with protein standards markers.

[7] = T1 (24 hour pretreatment, absent during UVB, present 48 hours after) 0.014%
[8] = T1 (24 hour pretreatment, absent during UVB, present 48 hours after) 0.14%
[9] = T2 (24 hour pretreatment, present during UVB and 48 hours after) 0.014%
[10] = T2 (24 hour pretreatment, present during UVB and 48 hours after) 0.14%
[11] = T3 (present only 48 hours after UVB) 0.014%
[12] = T3 (present only 48 hours after UVB) 0.14%
[13] = T4 (no pretreatment, present during UVB and 48 hours after) 0.014%
[14] = T4 (no pretreatment, present during UVB and 48 hours after) 0.14%

B1: GC2596-26-D: SELP47K modified with two units of ALSYP (SEQ ID NO:36) peptides in each SELP47K unit; SEQ ID NO:32 (Example 4) (protein)
chain: MDPVVLQRRDWENPGVTQLNRLAAHPPFASDPMGAGAGSGAGAGSALSYPGVGVPGVGVPGVGVPGVGVPGKGVPGVGVPGVGVPGVGVPALSYPGAGAGSGAGAGSGAGAGSGAGAGSALSYPGVGVPGVGVPGVGVPGVGVPGKGVPGVGVPGVGVPGVGVPALSYPGAGAGSGAGAGSGAGAGSGAGAGSALSYPGVGVPGVGVPGVGVPGVGVPGKGVPGVGVPGVGVPGVGVPALSYPGAGAGSGAGAGSGAGAGSGAGAGSALSYPGVGVPGVGVPGVGVPGVGVPGKGVPGVGVPGVGVPGVGVPALSYPGAGAGSGAGAGSGAGAGSGAGAGSALSYPGVGVPGVGVPGVGVPGVGVPGKGVPGVGVPGVGVPGVGVPALSYPGAGAGSGAGAGSGAGAGSGAGAGSALSYPGVGVPGVGVPGVGVPGVGVPGKGVPGVGVPGVGVPGVGVPALSYPGAGAGSGAGAGSGAGAGSGAGAGSALSYPGVGVPGVGVPGVGVPGVGVPGKGVPGVGVPGVGVPGVGVPALSYPGAGAGSGAGAGSGAGAGSGAGAGSALSYPGVGVPGVGVPGVGVPGVGVPGKGVPGVGVPGVGVPGVGVPALSYPGAGAGSGAGAGSGAGAGSGAGAGSALSYPGVGVPGVGVPGVGVPGVGVPGKGVPGVGVPGVGVPGVGVPALSYPGAGAGSGAGAGSGAGAGSGAGAGSALSYPGVGVPGVGVPGVGVPGVGVPGKGVPGVGVPGVGVPGVGVPALSYPGAGAGSGAGAGSGAGAGSGAGAGSALSYPGVGVPGVGVPGVGVPGVGVPGKGVPGVGVPGVGVPGVGVPALSYPGAGAGSGAGAGSGAGAGSGAGAGSALSYPGVGVPGVGVPGVGVPGVGVPGKGVPGVGVPGVGVPGVGVPALSYPGAGAGSGAGAGSGAGAGSGAGAGSALSYPGVGVPGVGVPGVGVPGVGVPGKGVPGVGVPGVGVPGVGVPALSYPGAGAGSGAGAGSGAGAMDPGRYQDLRSHHHHHH
modifications: SELP 47K-P4
With B1 the “Percent Viability” value [1, 7] was 85 ± 7%, the “Percent Viability” value [1, 8] was 122 ± 20% and the “Percent Viability” value [1, 9] was 78 ± 4%. The “Percent Viability” value [1, 10] was 126 ± 25%, the “Percent Viability” value [1, 11] was 88% and the “Percent Viability” value [1, 12] was 97 ± 14%. The “Percent Viability” value ([1]; T3 (present only 48 hours after UVB) 0.14%, listed as 2596-26-D) was about 100%, the “Percent Viability” value [1, 13] was 86 ± 6% and the “Percent Viability” value [1, 14] was 121 ± 19%. It also gave an RFU/Viability [2, 7] of 0.038, an RFU/Viability [2, 8] of 0.038 and an RFU/Viability [2, 9] of 0.035. It also gave an RFU/Viability [2, 10] of 0.032, an RFU/Viability [2, 11] of 0.053 and an RFU/Viability [2, 12] of 0.039. The RFU/Viability [2, 13] was 0.052, the RFU/Viability [2, 14] was 0.026 and the “Percent Viability” value ([3]; 0.0014%) was 100 ± 3%. For the same molecule, the “Percent Viability” value ([3]; 0.007%) was 103 ± 2%, the “Percent Viability” value ([3]; 0.014%) was 106 ± 5% and the “number of viable cells greater than −UVB untreated cells” value [4] was 54%.

B2: GC2596-26-E: collagen-like repeat sequence protein polymer, head-[(GAHGPAGPK)2(GAQGPAGPG)24(GAHGPAGPK)2]4-tail; SEQ ID NO:34 (Example 5) (protein)
chain: MDPVVLQRRDWENPGVTQLNRLAAHPPFASDPMGAHGPAGPKGAHGPAGPKGAQGPAGPGGAQGPAGPGGAQGPAGPGGAQGPAGPGGAQGPAGPGGAQGPAGPGGAQGPAGPGGAQGPAGPGGAQGPAGPGGAQGPAGPGGAQGPAGPGGAQGPAGPGGAQGPAGPGGAQGPAGPGGAQGPAGPGGAQGPAGPGGAQGPAGPGGAQGPAGPGGAQGPAGPGGAQGPAGPGGAQGPAGPGGAQGPAGPGGAQGPAGPGGAQGPAGPGGAHGPAGPKGAHGPAGPKGAHGPAGPKGAHGPAGPKGAQGPAGPGGAQGPAGPGGAQGPAGPGGAQGPAGPGGAQGPAGPGGAQGPAGPGGAQGPAGPGGAQGPAGPGGAQGPAGPGGAQGPAGPGGAQGPAGPGGAQGPAGPGGAQGPAGPGGAQGPAGPGGAQGPAGPGGAQGPAGPGGAQGPAGPGGAQGPAGPGGAQGPAGPGGAQGPAGPGGAQGPAGPGGAQGPAGPGGAQGPAGPGGAQGPAGPGGAHGPAGPKGAHGPAGPKGAHGPAGPKGAHGPAGPKGAQGPAGPGGAQGPAGPGGAQGPAGPGGAQGPAGPGGAQGPAGPGGAQGPAGPGGAQGPAGPGGAQGPAGPGGAQGPAGPGGAQGPAGPGGAQGPAGPGGAQGPAGPGGAQGPAGPGGAQGPAGPGGAQGPAGPGGAQGPAGPGGAQGPAGPGGAQGPAGPGGAQGPAGPGGAQGPAGPGGAQGPAGPGGAQGPAGPGGAQGPAGPGGAQGPAGPGGAHGPAGPKGAHGPAGPKGAHGPAGPKGAHGPAGPKGAQGPAGPGGAQGPAGPGGAQGPAGPGGAQGPAGPGGAQGPAGPGGAQGPAGPGGAQGPAGPGGAQGPAGPGGAQGPAGPGGAQGPAGPGGAQGPAGPGGAQGPAGPGGAQGPAGPGGAQGPAGPGGAQGPAGPGGAQGPAGPGGAQGPAGPGGAQGPAGPGGAQGPAGPGGAQGPAGPGGAQGPAGPGGAQGPAGPGGAQGPAGPGGAQGPAGPGGAHGPAGPKGAHGPAGPKMDPGRYQLSAGRYHYQLVWCQK
modifications: silk-elastin repeat sequence protein copolymer
For B2, the “concentrations with adverse effects on cell viability” value [5] was at least 0.07% and the “pI of the protein” value [6] was 11.18.
